{"source": "patent US20040121323", "about": "“Mrna binding motif” (published 2004)", "key": {"[1]": {"biological_target": "T1, Grb14 SH2 domain (aa 426-540) (Homo sapiens, UniProt Q14449 Q14449:426-540)", "T1 sequence": "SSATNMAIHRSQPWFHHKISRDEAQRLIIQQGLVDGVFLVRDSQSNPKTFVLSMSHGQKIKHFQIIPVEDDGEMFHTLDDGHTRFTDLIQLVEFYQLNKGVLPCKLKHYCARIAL", "experiment": "EMSA", "conditions": "tags: GST; label: 32P"}, "[2]": {"biological_target": "Grb7 PH-SH2 fragment (Homo sapiens, UniProt Q14451 Q14451:229-532)", "sequence (Q14451 229-532, one chain of several)": "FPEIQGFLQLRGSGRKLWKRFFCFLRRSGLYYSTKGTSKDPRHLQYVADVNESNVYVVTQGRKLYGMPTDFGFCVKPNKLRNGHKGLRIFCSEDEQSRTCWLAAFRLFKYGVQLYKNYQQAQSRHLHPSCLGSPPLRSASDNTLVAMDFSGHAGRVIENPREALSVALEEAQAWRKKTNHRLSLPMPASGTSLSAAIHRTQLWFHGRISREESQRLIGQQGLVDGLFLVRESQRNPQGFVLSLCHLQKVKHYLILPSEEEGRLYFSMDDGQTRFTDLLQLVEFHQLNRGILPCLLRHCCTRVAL", "experiment": "EMSA", "conditions": "tags: GST; label: 32P"}}, "data": [{"binder": "erbB-2 3'-UTR U-rich probe (ssRNA) RNA: UUUGUACAGAGUGCUUUUCUGUUUAGUUUUUACUUUUUUUGUUUUGUUUUUUUAAAGACGAAAUAAAGA", "values": [{"measurement": "binding result", "setting": "[1]", "result": "binds"}, {"measurement": "binding result", "setting": "[2]", "result": "binds"}]}]}
